The record followed here is US20240050475A1.

For this assay, the target named is human PRDX4 present on the cell surface of cancer cells (human) (UniProt Q13162). As to the kind of experiment: flow cytometry on ES-2 cells, control staining.
Sequence of UniProt Q13162 (Q13162 38-271 limits assumed): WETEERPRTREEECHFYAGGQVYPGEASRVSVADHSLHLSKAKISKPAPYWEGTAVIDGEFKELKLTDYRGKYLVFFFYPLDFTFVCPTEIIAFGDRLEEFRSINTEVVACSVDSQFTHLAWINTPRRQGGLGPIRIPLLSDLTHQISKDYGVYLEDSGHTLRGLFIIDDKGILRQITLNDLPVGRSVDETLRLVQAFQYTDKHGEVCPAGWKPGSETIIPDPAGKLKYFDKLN

Turning to isotype antibody, the mean (flow cytometry) is 159.
